In paper PMC12638876 (Nature Communications, 2025):
Changes are numbered by the printed parent chain. Names may count otherwise.

B1: CXE15 C14D fused to split YFP (enzyme, Arabidopsis thaliana, UniProt Q9FG13 1-329, looked up)
chain: MGSLGEEPQVAEDDMGLLQLLSNGTVLRSESIDLITQQIPFKNNQTVLFKDSIYHKPNNLHLRLYKPISASNRTALPVVVFFHGGGFCFGSRSWPHFHNFCLTLASSLNALVVSPDYRLAPEHRLPAAFEDAEAVLTWLWDQAVSDGVNHWFEDGTDVDFDRVFVVGDSSGGNIAHQLAVRFGSGSIELTPVRVRGYVLMGPFFGGEERTNSENGPSEALLSLDLLDKFWRLSLPNGATRDHHMANPFGPTSPTLESISLEPMLVIVGGSELLRDRAKEYAYKLKKMGGKRVDYIEFENKEHGFYSNYPSSEAAEQVLRIIGDFMNNLS
B2: CXE15 E271Q mutant (enzyme, Arabidopsis thaliana, UniProt Q9FG13 1-329, looked up)
chain: B1 chain with D14C, E271Q
modifications: disulphide bond between the two Cys14 residues in the crystal

Columns and labels:
[1] = molecular target: the molecule itself; assay: split reporter
[2] = molecular target: the molecule itself; assay: crystal structure

| Protein | fold reduction of BiFC fluorescence against wild-type CXE15 [1] [fold] | binding result [2] |
| --- | --- | --- |
| B1 | > 2 | – |
| B2 | – | binds |
